How the values were obtained:
[1] = molecular target: poliovirus receptor-related 4 (ovis aries Nectin-4), Nectin 4-Myc (ovis aries); assay: co-IP
[2] = molecular target: Peste-des-petits-ruminants virus haemagglutinin (H) protein of the Nigeria 75/1 strain, Hv-HA (Peste-des-petits-ruminants virus, strain Nigeria 75/1); assay: SPR
[3] = molecular target: Peste-des-petits-ruminants virus haemagglutinin (H) protein of the Nigeria 75/1 strain, Hv-HA (Peste-des-petits-ruminants virus, strain Nigeria 75/1); assay: co-IP

Q: For “Peste-des-petits-ruminants virus haemagglutinin (H) protein of the Nigeria 75/1 strain, Hv-HA (natural protein)”, which calibrated ratio of co-IP (percent of Hv and Nectin 4) [1] is on record?
A: 100%

Q: What does the source list for “poliovirus receptor-related 4 (ovis aries Nectin-4), Nectin 4-Myc”?
A: Kd [2]: 306 nM; koff [2]: 0.000435 s⁻¹; kon [2]: 1420 M⁻¹ s⁻¹; calibrated ratio of co-IP (percent of Hv and Nectin 4) [3]: 100%

Source: publication PMC7416607
